# B1: THAP1; numbered along this chain (parent)
# chain: MVQSCSAYGCKNRYDKDKPVSFHKFPLTRPSLCKEWEAAVRRKNFKPTKYSSICSEHFTPDCFKRECNNKLLKENAVPTIFLCTEPHDKKEDLLEPQEQLPPPPLPPPVSQVDAAIGLLMPPLQTPVNLSVFCDHNYTVEDTMHQRKRIHQLEQQVEKLRKKLKTAQQRCRRQERQLEKLKEVVHFQKEKDDVSERGYVILPNDYFEIVEVPA
# Variants of: B1
# Assay: THAP1 transcriptional activity (GFP+/GFP- enrichment relative to wild-type constructs) (ratio to WT); higher = more THAP1 activity (PSMB5 reporter activation)
# Details: with PSMB5 promoter-GFP reporter
# Procedure, shortened: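 A lentiviral site-saturation library covering residues 2–213 of human THAP1, with each position changed to all 20 amino acids, was transduced in duplicate at MOI ~0.3 into THAP1-knockout HEK-293T cells with mClover3 knocked in at endogenous PSMB5. Five days later, BFP+ cells were sorted into GFP-dim and GFP-bright bins and variants were counted by Illumina sequencing of genomic DNA amplicons. Activity is the bright/dim read fold change averaged over replicates and divided by the mean of wild-type synonymous constructs.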
row,Variant,THAP1 transcriptional activity
1,MVQSCSAYGCKNRYDKDKPVSFHKFPLTRPSLCKEWEAAVRRKNFKPTKYSSICSEHFTPDCFKRECNNKLLKENAVPTIFLCTEPHDKKEDLLEPQEQLPPPPLPPPVSQVDAAIGLLMPPLQTPVNLSVFCDHNQTVEDTMHQRKRIHQLEQQVEKLRKKLKTAQQRCRRQERQLEKLKEVVHFQKEKDDVSERGYVILPNDYFEIVEVPA [Y137Q],0.186
2,MVQSCSAYGCKNRYDKDKPVSFHKFPLTRPSLCKEWEAAVRRKNFKPTKYSSICSEHFTPDCFKRECNNKLLKENAVPTIFLCTEPHDKKEDLLEPQEQLPPPPLPPPVSQVDAAIGLLMPPLQTPVNLSVFCDHNATVEDTMHQRKRIHQLEQQVEKLRKKLKTAQQRCRRQERQLEKLKEVVHFQKEKDDVSERGYVILPNDYFEIVEVPA [Y137A],0.0848
3,MVQSCSAYGCKNRYDKDKPVSFHKFPLTRPSLCKEWEAAVRRKNFKPTKYSSICSEHFTPDCFKRECNNKLLKENAVPTIFLCTEPHDKKEDLLEPQEQLPPPPLPPPVSQVDAAIGLLMPPLQTPVNLSVFCDHNHTVEDTMHQRKRIHQLEQQVEKLRKKLKTAQQRCRRQERQLEKLKEVVHFQKEKDDVSERGYVILPNDYFEIVEVPA [Y137H],0.111
4,MVQSCSAYGCKNRYDKDKPVSFHKFPLTRPSLCKEWEAAVRRKNFKPTKYSSICSEHFTPDCFKRECNNKLLKENAVPTIFLCTEPHDKKEDLLEPQEQLPPPPLPPPVSQVDAAIGLLMPPLQTPVNLSVFCDHNPTVEDTMHQRKRIHQLEQQVEKLRKKLKTAQQRCRRQERQLEKLKEVVHFQKEKDDVSERGYVILPNDYFEIVEVPA [Y137P],0.117
5,MVQSCSAYGCKNRYDKDKPVSFHKFPLTRPSLCKEWEAAVRRKNFKPTKYSSICSEHFTPDCFKRECNNKLLKENAVPTIFLCTEPHDKKEDLLEPQEQLPPPPLPPPVSQVDAAIGLLMPPLQTPVNLSVFCDHNKTVEDTMHQRKRIHQLEQQVEKLRKKLKTAQQRCRRQERQLEKLKEVVHFQKEKDDVSERGYVILPNDYFEIVEVPA [Y137K],0.211
6,MVQSCSAYGCKNRYDKDKPVSFHKFPLTRPSLCKEWEAAVRRKNFKPTKYSSICSEHFTPDCFKRECNNKLLKENAVPTIFLCTEPHDKKEDLLEPQEQLPPPPLPPPVSQVDAAIGLLMPPLQTPVNLSVFCDHNVTVEDTMHQRKRIHQLEQQVEKLRKKLKTAQQRCRRQERQLEKLKEVVHFQKEKDDVSERGYVILPNDYFEIVEVPA [Y137V],0.0934
7,MVQSCSAYGCKNRYDKDKPVSFHKFPLTRPSLCKEWEAAVRRKNFKPTKYSSICSEHFTPDCFKRECNNKLLKENAVPTIFLCTEPHDKKEDLLEPQEQLPPPPLPPPVSQVDAAIGLLMPPLQTPVNLSVFCDHNITVEDTMHQRKRIHQLEQQVEKLRKKLKTAQQRCRRQERQLEKLKEVVHFQKEKDDVSERGYVILPNDYFEIVEVPA [Y137I],0.109
8,MVQSCSAYGCKNRYDKDKPVSFHKFPLTRPSLCKEWEAAVRRKNFKPTKYSSICSEHFTPDCFKRECNNKLLKENAVPTIFLCTEPHDKKEDLLEPQEQLPPPPLPPPVSQVDAAIGLLMPPLQTPVNLSVFCDHNFTVEDTMHQRKRIHQLEQQVEKLRKKLKTAQQRCRRQERQLEKLKEVVHFQKEKDDVSERGYVILPNDYFEIVEVPA [Y137F],0.161
9,MVQSCSAYGCKNRYDKDKPVSFHKFPLTRPSLCKEWEAAVRRKNFKPTKYSSICSEHFTPDCFKRECNNKLLKENAVPTIFLCTEPHDKKEDLLEPQEQLPPPPLPPPVSQVDAAIGLLMPPLQTPVNLSVFCDHNMTVEDTMHQRKRIHQLEQQVEKLRKKLKTAQQRCRRQERQLEKLKEVVHFQKEKDDVSERGYVILPNDYFEIVEVPA [Y137M],0.114
10,MVQSCSAYGCKNRYDKDKPVSFHKFPLTRPSLCKEWEAAVRRKNFKPTKYSSICSEHFTPDCFKRECNNKLLKENAVPTIFLCTEPHDKKEDLLEPQEQLPPPPLPPPVSQVDAAIGLLMPPLQTPVNLSVFCDHNLTVEDTMHQRKRIHQLEQQVEKLRKKLKTAQQRCRRQERQLEKLKEVVHFQKEKDDVSERGYVILPNDYFEIVEVPA [Y137L],0.167
11,MVQSCSAYGCKNRYDKDKPVSFHKFPLTRPSLCKEWEAAVRRKNFKPTKYSSICSEHFTPDCFKRECNNKLLKENAVPTIFLCTEPHDKKEDLLEPQEQLPPPPLPPPVSQVDAAIGLLMPPLQTPVNLSVFCDHNTTVEDTMHQRKRIHQLEQQVEKLRKKLKTAQQRCRRQERQLEKLKEVVHFQKEKDDVSERGYVILPNDYFEIVEVPA [Y137T],0.136
12,MVQSCSAYGCKNRYDKDKPVSFHKFPLTRPSLCKEWEAAVRRKNFKPTKYSSICSEHFTPDCFKRECNNKLLKENAVPTIFLCTEPHDKKEDLLEPQEQLPPPPLPPPVSQVDAAIGLLMPPLQTPVNLSVFCDHNETVEDTMHQRKRIHQLEQQVEKLRKKLKTAQQRCRRQERQLEKLKEVVHFQKEKDDVSERGYVILPNDYFEIVEVPA [Y137E],0.152
13,MVQSCSAYGCKNRYDKDKPVSFHKFPLTRPSLCKEWEAAVRRKNFKPTKYSSICSEHFTPDCFKRECNNKLLKENAVPTIFLCTEPHDKKEDLLEPQEQLPPPPLPPPVSQVDAAIGLLMPPLQTPVNLSVFCDHNDTVEDTMHQRKRIHQLEQQVEKLRKKLKTAQQRCRRQERQLEKLKEVVHFQKEKDDVSERGYVILPNDYFEIVEVPA [Y137D],0.172
14,MVQSCSAYGCKNRYDKDKPVSFHKFPLTRPSLCKEWEAAVRRKNFKPTKYSSICSEHFTPDCFKRECNNKLLKENAVPTIFLCTEPHDKKEDLLEPQEQLPPPPLPPPVSQVDAAIGLLMPPLQTPVNLSVFCDHNGTVEDTMHQRKRIHQLEQQVEKLRKKLKTAQQRCRRQERQLEKLKEVVHFQKEKDDVSERGYVILPNDYFEIVEVPA [Y137G],0.161

# From the supplement of paper PMC11811203
